Results reported in article PMC4166353.

Key:
[1] = target: Fluorescence quenched C4 P4-P4' substrate, 2-aminobenzoate-GLQRALEI-Lys(Dinitrophenol)-NH2

EC50 for cleavage of the C4 alpha chain (C4 1 uM, enzyme 0-5 nM, 1 h, 37 C, SDS-PAGE densitometry) (Complement component C4) [nM] | kcat/K0.5 for cleavage of the fluorescence quenched C4 P4-P4' peptide (400 nM enzyme, 0.5-500 uM substrate, 37 C) [1] [M⁻¹ s⁻¹] | Substance
0.77 | 110000 | Recombinant human C1s K628A mutant, activated (from UniProt P09871 16-688) (enzyme)
0.16 | 82000 | Recombinant human C1s, wild type, activated (from UniProt P09871 16-688) (enzyme)
0.76 | 95000 | Recombinant human C1s K628Q mutant, activated (from UniProt P09871 16-688) (enzyme)
